According to patent US20020123082A1 (NEW YORK UNIVERSITY, published 2002):
Values belong to the binder of their own block, whether it stands above or below them.

What was measured:
human Cul1 (endogenous) = molecular target: T1, human Cul1 (endogenous) (human, UniProt Q13616 1-776); test: anti-Flag co-immunoprecipitation from transfected HeLa cells, anti-Cul1 immunoblot
T1 construct: A slower migrating form is said to be likely modified by a ubiquitin-like molecule
Description: (§1) HeLa cells were transfected with mammalian expression plasmids encoding Flag-tagged versions of FBP1 (lane 1), (ΔF)FBP1 (lane 2), FBP4 (lane 3), FBP7 (lane 5), FBP2 (lane 7), (ΔF)FBP2 (lane 8), FBP3a (lane 9), (ΔF)FBP3a (lane 10), or with an empty vector (lanes 4 and 6). Cells were lysed and extracts were subjected to immunoprecipitation with a rabbit anti-Flag antibody (lanes 1-8). Immunoprecipitates were then immunoblotted with a mouse anti-Cul1 monoclonal antibody, a rabbit anti-Skp1 polyclonal antibody or a rabbit anti-Cul2 polyclonal antibody, as indicated. The last lane contains 25 μg of extracts from non-transfected HeLa cells; […] contains recombinant Cul1, Skp1, or Cul2 proteins used as markers.

human Cul2 (endogenous) = human Cul2 (endogenous) (human, UniProt Q13617 1-745, limits assumed); test: anti-Flag co-immunoprecipitation from transfected HeLa cells, anti-Cul2 immunoblot
Sequence of human Cul2 (endogenous) (Q13617 whole entry): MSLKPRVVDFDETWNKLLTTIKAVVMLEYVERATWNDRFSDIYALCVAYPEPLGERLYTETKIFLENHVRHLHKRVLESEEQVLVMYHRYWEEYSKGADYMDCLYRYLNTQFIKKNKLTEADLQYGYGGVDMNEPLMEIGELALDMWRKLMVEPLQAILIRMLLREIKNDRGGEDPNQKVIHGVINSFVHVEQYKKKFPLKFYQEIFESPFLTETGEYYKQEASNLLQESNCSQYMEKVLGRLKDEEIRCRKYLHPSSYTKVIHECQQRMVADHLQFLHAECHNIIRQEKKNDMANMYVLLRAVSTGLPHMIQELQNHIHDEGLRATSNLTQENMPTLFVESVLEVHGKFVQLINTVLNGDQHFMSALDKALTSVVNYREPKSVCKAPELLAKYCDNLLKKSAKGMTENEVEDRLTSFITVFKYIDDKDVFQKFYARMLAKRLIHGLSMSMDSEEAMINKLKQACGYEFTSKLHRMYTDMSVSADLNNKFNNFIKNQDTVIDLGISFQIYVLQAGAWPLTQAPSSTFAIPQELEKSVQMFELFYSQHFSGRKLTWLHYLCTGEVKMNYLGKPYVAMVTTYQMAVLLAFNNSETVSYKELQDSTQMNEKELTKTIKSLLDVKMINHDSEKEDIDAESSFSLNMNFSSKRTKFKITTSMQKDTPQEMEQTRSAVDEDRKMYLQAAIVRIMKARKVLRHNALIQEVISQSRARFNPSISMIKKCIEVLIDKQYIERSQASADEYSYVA
Description: as §1

His-tagged Elongin C = His-tagged Elongin C (human, UniProt Q15369 1-112); test: pull-down of in vitro translated 35S-FBP on His-Elongin C Nickel-agarose beads
Sequence of His-tagged Elongin C (Q15369 whole entry): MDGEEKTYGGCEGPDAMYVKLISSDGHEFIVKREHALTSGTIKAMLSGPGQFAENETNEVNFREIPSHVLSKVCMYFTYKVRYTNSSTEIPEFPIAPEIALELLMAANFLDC
Experimental: FIG. 29. FBPs interact specifically with Skp1 through their F-box. The cDNAs of FBPs (wild type and mutants) were transcribed and translated in vitro (IVT) in the presence of 35S- methionine. […] Bound IVT proteins were analyzed by SDS-PAGE and autoradiography. The arrows on the left side of the panels point to the indicated FBPs. The apparent molecular weights of the protein standards are indicated on the right side of the panels.
As examples of the human FBP family, a more detailed characterization of some FBPs was performed. To confirm the specificity of interaction between the novel FBPs and human Skp1, eight in vitro translated FBPs were tested for binding to His-tagged-Skp1 pre-bound to Nickel-agarose beads. As a control Elongin C was used, the only known human Skp1 homolog.

T1 sequence (Q13616 whole entry): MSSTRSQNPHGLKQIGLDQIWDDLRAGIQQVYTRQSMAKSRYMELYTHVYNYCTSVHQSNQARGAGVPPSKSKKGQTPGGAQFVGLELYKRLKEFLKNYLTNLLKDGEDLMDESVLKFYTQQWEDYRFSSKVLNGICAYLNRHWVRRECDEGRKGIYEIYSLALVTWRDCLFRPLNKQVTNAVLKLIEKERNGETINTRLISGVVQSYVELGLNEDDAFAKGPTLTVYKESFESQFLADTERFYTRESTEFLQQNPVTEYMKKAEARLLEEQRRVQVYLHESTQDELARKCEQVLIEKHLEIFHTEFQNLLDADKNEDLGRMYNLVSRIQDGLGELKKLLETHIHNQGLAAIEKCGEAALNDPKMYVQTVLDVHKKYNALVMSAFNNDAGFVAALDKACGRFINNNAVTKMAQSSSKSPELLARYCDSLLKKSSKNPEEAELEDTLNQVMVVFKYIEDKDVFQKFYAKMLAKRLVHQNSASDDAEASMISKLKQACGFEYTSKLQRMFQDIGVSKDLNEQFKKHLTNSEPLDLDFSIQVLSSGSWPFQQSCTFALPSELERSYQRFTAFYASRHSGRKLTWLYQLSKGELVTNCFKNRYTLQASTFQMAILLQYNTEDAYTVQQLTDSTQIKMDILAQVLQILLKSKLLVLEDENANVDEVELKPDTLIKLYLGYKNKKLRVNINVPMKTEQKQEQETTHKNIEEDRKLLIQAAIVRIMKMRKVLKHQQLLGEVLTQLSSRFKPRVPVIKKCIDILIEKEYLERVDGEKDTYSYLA

- binding result (human Cul1 (endogenous)): no binding
B1: Flag-tagged (ΔF)FBP1 (other, not shown: small tags and cut ends)
chain: MDPAEAVLQEKALKFMNSSEREDCNNGEPPRYRVTSDGMLWKKLIERMVRTDSLWRGLAERRGWGQYLFKNKPPDGNAPPNSFYRALYPKIIQDIETIESNWRCGRHSLQRIHCRSETSKGVYCLQYDDQKIVSGLRDNTIKIWDKNTLECKRILTGHTGSVLCLQYDERVIITGSSDSTVRVWDVNTGEMLNTLIHHCEAVLHLRFNNGMMVTCSKDRSIAVWDMASPTDITLRRVLVGHRAAVNVVDFDDKYIVSASGDRTIKVWNTSTCEFVRTLNGHKRGIACLQYRDRLVVSGSSDNTIRLWDIECGACLRVLEGHEELVRCIRFDNKRIVSGAYDGKIKVWDLVAALDPRAPAGTLCLRTLVEHSGRVFRLQFDEFQIVSSSHDDTILIWDFLNDPAAQAEPPRSPSRTYTYISR
notes: pcDNA3 construct, Flag tag at the C-terminus; also called Flag-tagged (deltaF)FBP1

- binding result (human Cul2 (endogenous)): no binding
B2: Flag-tagged FBP2 (other, not shown: small tags and cut ends)
chain: MERKDFETWLDNISVTFLSLTDLQKNETLDHLISLSGAVQLRHLSNNLETLLKRDFLKLLPLELSFYLLKWLDPQTLLTCCLVSKQWNKVISACTEVWQTACKNLGWQIDDSVQDALHWKKVYLKAILRMKQLEDHEAFETSSLIGHSARVYALYYKDGLLCTGSDDLSAKLWDVSTGQCVYGIQTHTCAAVKFDEQKLVTGSFDNTVACWEWSSGARTQHFRGHTGAVFSVDYNDELDILVSGSADFTVKVWALSAGTCLNTLTGHTEWVTKVVLQKCKVKSLLHSPGDYILLSADKYEIKIWPIGREINCKCLKTLSVSEDRSICLQPRLHFDGKYIVCSSALGLYQWDFASYDILRVIKTPEIANLALLGFGDIFALLFDNRYLYIMDLRTESLISRWPLPEYRESKRGSSFLAGEHPG
notes: pcDNA3 construct, Flag tag at the C-terminus

- binding result (His-tagged Elongin C): no binding
B3: human F-box protein FBP2 (other)
chain: B2 chain

- binding result (human Cul2 (endogenous)): no binding
B4: Flag-tagged FBP4 (other, not shown: small tags and cut ends)
chain: MAGSEPRSGTNSPPPPFSDWGRLEAAILSGWKTFWQSVSKDRVARTTSREEVDEAASTLTRLPIDVQLYILSFLSPHDLCQLGSTNHYWNETVRNPILWRYFLLRDLPSWSSVDWKSLPYLQILKKPISEVSDGAFFDYMAVYLMCCPYTRRASKSSRPMYGAVTSFLHSLIIPNEPRFALFGPRLEQLNTSLVLSLLSSEELCPTAGLPQRQIDGIGSGVNFQLNNQHKFNILILYSTTRKERDRAREEHTSAVNKMFSRHNEGDDRPGSRYSVIPQIQKLCEVVDGFIYVANAEAHKRHEWQDEFSHIMAMTDPAFGSSGRPLLVLSCISQGDVKRMPCFYLAHELHLNLLNHPWLVQDTEAETLTGFLNGIEWILEEVESKRAR
notes: as for B2

- binding result (human Cul2 (endogenous)): no binding
B5: Flag-tagged FBP3a (other, not shown: small tags and cut ends)
chain: MKRGGRDSDRNSSEEGTAEKSKKLRTTNEHSQTCDWGNLLQDIILQVFKYLPLLDRAHASQVCRNWNQVFHMPDLWRCFEFELNQPATSYLKATHPELIKQIIKRHSNHLQYVSFKVDSSKESAEAACDILSQLVNCSLKTLGLISTARPSFMDLPKSHFISALTVVFVNSKSLSSLKIDDTPVDDPSLKVLVANNSDTLKLLKMSSCPHVSPAGILCVADQCHGLRELALNYHLLSDELLLALSSEKHVRLEHLRIDVVSENPGQTHFHTIQKSSWDAFIRHSPKVNLVMYFFLYEEEFDPFFRYEIPATHLYFGRSVSKDVLGRVGMTCPRLVELVVCANGLRPLDEELIRIAERCKNLSAIGLGECEVSCSAFVEFVKMCGGRLSQLSIMEEVLIPDQKYSLEQIHWEVSKHLGRVWFPDMMPTW
notes: as for B2

- binding result (His-tagged Elongin C): no binding
B6: human F-box protein FBP3a (other)
chain: B5 chain

- binding result (human Cul1 (endogenous)): no binding
B7: Flag-tagged (ΔF)FBP2 (other, not shown: small tags and cut ends)
chain: MERKDFETWLDNISVTFLSLTDLQKNETLDHLISLSGAVQLRHLSNNLETLLKRDFLKLCKNLGWQIDDSVQDALHWKKVYLKAILRMKQLEDHEAFETSSLIGHSARVYALYYKDGLLCTGSDDLSAKLWDVSTGQCVYGIQTHTCAAVKFDEQKLVTGSFDNTVACWEWSSGARTQHFRGHTGAVFSVDYNDELDILVSGSADFTVKVWALSAGTCLNTLTGHTEWVTKVVLQKCKVKSLLHSPGDYILLSADKYEIKIWPIGREINCKCLKTLSVSEDRSICLQPRLHFDGKYIVCSSALGLYQWDFASYDILRVIKTPEIANLALLGFGDIFALLFDNRYLYIMDLRTESLISRWPLPEYRESKRGSSFLAGEHPG
notes: pcDNA3 construct, Flag tag at the C-terminus; also called Flag-tagged (deltaF)FBP2

- binding result (human Cul2 (endogenous)): no binding
B8: Flag-tagged FBP7 (other, not shown: small tags and cut ends)
chain: MSNTRFTITLNYKDPLTGDEETLASYGIVSGDLICLILHDDIPPPNIPSSTDSEHSSLQNNEQPSLATSSNQTSIQDEQPSDSFQGQAAQSGVWNDDSMLGPSQNFEAESIQDNAHMAEGTGFYPSEPLLCSESVEGQVPHSLETLYQSADCSDANDALIVLIHLLMLESGYIPQGTEAKALSLPEKWKLSGVYKLQYMHHLCEGSSATLTCVPLGNLIVVNATLKINNEIRSVKRLQLLPESFICKEKLGENVANIYKDLQKLSRLFKDQLVYPLLAFTRQALNLPNVFGLVVLPLELKLRIFRLLDVRSVLSLSAVCRDLFTASNDPLLWRFLYLRDFRDNTVRVQDTDWKELYRKRHIQRKESPKGRFVLLLPSSTHTIPFYPNPLHPRPFPSSRLPPGIIGGEYDQRPTLPYVGDPISSLIPGPGETPSQLPPLRPRFDPVGPLPGPNPILPGRGGPNDRFPFRPSRGRPTDGRLSFM
notes: Expressed in HeLa cells

- binding result (His-tagged Elongin C): no binding
B9: human F-box protein FBP1 (other)
chain: MDPAEAVLQEKALKFMNSSEREDCNNGEPPRKIIPEKNSLRQTYNSCARLCLNQETVCLASTAMKTENCVAKTKLANGTSSMIVPKQRKLSASYEKEKELCVKYFEQWSESDQVEFVEHLISQMCHYQHGHINSYLKPMLQRDFITALPARGLDHIAENILSYLDAKSLCAAELVCKEWYRVTSDGMLWKKLIERMVRTDSLWRGLAERRGWGQYLFKNKPPDGNAPPNSFYRALYPKIIQDIETIESNWRCGRHSLQRIHCRSETSKGVYCLQYDDQKIVSGLRDNTIKIWDKNTLECKRILTGHTGSVLCLQYDERVIITGSSDSTVRVWDVNTGEMLNTLIHHCEAVLHLRFNNGMMVTCSKDRSIAVWDMASPTDITLRRVLVGHRAAVNVVDFDDKYIVSASGDRTIKVWNTSTCEFVRTLNGHKRGIACLQYRDRLVVSGSSDNTIRLWDIECGACLRVLEGHEELVRCIRFDNKRIVSGAYDGKIKVWDLVAALDPRAPAGTLCLRTLVEHSGRVFRLQFDEFQIVSSSHDDTILIWDFLNDPAAQAEPPRSPSRTYTYISR

- binding result (human Cul2 (endogenous)): no binding
B10: Flag-tagged FBP1 (other, not shown: small tags and cut ends)
chain: B9 chain
notes: Flag tag at the C-terminus in the pcDNA3 constructs (HeLa, 293 cells); also called Flag-FBP1

- binding result (His-tagged Elongin C): no binding
B11: human F-box protein FBP5 (other)
chain: MSRRPCSCALRPPRCSCSASPSAVTAAGRPRPSDSCKEESSTLSVKMKCDFNCNHVHSGLKLVKPDDIGRLVSYTPAYLEGSCKDCIKDYERLSCIGSPIVSPRIVQLETESKRLHNKENQHVQQTLNSTNEIEALETSRLYEDSGYSSFSLQSGLSEHEEGSLLEENFGDSLQSCLLQIQSPDQYPNKNLLPVLHFEKVVCSTLKKNAKRNPKVDREMLKEIIARGNFRLQNIIGRKMGLECVDILSELFRRGLRHVLATILAQLSDMDLINVSKVSTTWKKILEDDKGAFQLYSKAIQRVTENNNKFSPHASTREYVMFRTPLASVQKSAAQTSLKKDAQTKLSNQGDQKGSTYSRHNEFSEVAKTLKKNESLKACIRCNSPAKYDCYLQRATCKREGCGFDYCTKCLCNYHTTKDCSDGKLLKASCKIGPLPGTKKSKKNLRRL
notes: Gal4 AD fusion in the two-hybrid screen; the clone appeared to be full length
